As usually defined, the stoichiometry N is a count of units in the complex or per binding partner.

“And” between values parts separate entries of the source, which are not always exact repeats. Equal values may be shown once.

The results in this text go back to paper PMC12959407 (Science Advances, 2026).

This series concerns the molecule itself. Description: cryo-EM structure; single-particle cryo-EM of purified proteins; mHsp60 10 uM and mHsp10 8 uM mixed in 20 mM tris-HCl pH 7.7, 20 mM KCl, 10 mM MgCl2, 2 mM ATP; incubated 30 s to 30 min before vitrification.

B1: recombinant WT human mitochondrial Hsp60 (mHsp60), mature form (natural protein)
chain: GSAKDVKFGADARALMLQGVDLLADAVAVTMGPKGRTVIIEQSWGSPKVTKDGVTVAKSIDLKDKYKNIGAKLVQDVANNTNEEAGDGTTTATVLARSIAKEGFEKISKGANPVEIRRGVMLAVDAVIAELKKQSKPVTTPEEIAQVATISANGDKEIGNIISDAMKKVGRKGVITVKDGKTLNDELEIIEGMKFDRGYISPYFINTSKGQKCEFQDAYVLLSEKKISSIQSIVPALEIANAHRKPLVIIAEDVDGEALSTLVLNRLKVGLQVVAVKAPGFGDNRKNQLKDMAIATGGAVFGEEGLTLNLEDVQPHDLGKVGEVIVTKDDAMLLKGKGDKAQIEKRIQEIIEQLDVTTSEYEKEKLNERLAKLSDGVAVLKVGGTSDVEVNEKKDRVTDALNATRAAVEEGIVLGGGCALLRCIPALDSLTPANEDQKIGIEIIKRTLKIPAMTIAKNAGVEGSLIVEKIMQSSSEVGYDAMAGDFVNMVEKGIIDPTKVVRTALLDAAGVASLLTTAEVVVTEIPKEEKDPGMGAMGGMGGGMGGGMF
notes: additional Gly-Ser kept at the N terminus after TEV cleavage; human mitochondrial Hsp60 without the 26-residue mitochondrial targeting signal of the 573-residue precursor; mature protein of 547 residues beginning with AKDVKFG; numbers count on: the mature protein; Forms heptameric rings; seven copies in single rings and half-footballs, fourteen in double rings, bullets and footballs; also called …
For B1, the “stoichiometry N” value is 7 and 14.
